Assay [1] deals with SARS-CoV-2 receptor binding domain (RBD), Wuhan-1 (SARS-CoV-2 Wuhan-Hu-1) (UniProt P0DTC2). In words: SPR. (In general: Surface plasmon resonance follows binding to a sensor surface in real time, without labels.)
Assay [2] has as its target SARS-CoV-2 S protein (recombinant, His-tagged) (SARS-CoV-2 Wuhan-Hu-1 (MN908947)) (UniProt P0DTC2).

As for CC6.30 IgG (antibody), the dissociation constant (Kd) (in general, the concentration at which binding is half-saturated) in assay [1] was 1.7 nM.
Still for that read-out and setting: with CC6.33 IgG (antibody) the figure was 257 nM; with CC12.1 IgG (antibody), 6 nM.
For CC6.33 Fab, the fold higher binding affinity than for RBD in assay [2] was 10 fold.

For the origin of these results see paper doi:10.1101/2022.01.06.475303.
